Laboratory results: the supplement of paper PMC6757056
± gives the standard deviation of the averaged measurements.

B1: library; a variant is named by its letters at N, in order (parent)
chain: GCUGUCACCGGUGUAUUACCCUAGUGGUCGACCGGUCUGAUGAGUCUNNNNNNAGACGAAACAGC

Assays:
hypoxanthine [1] = variants of: B1; assay: FACS-Seq fitted mean relative fluorescence mCherry/BFP without ligand (log10 relative fluorescence); ligand: hypoxanthine (xanthine aptamer); higher = higher reporter protein expression; conditions: HEK293T, ligand present: no
Method in brief: (§1)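 Sorting into 6 bins by mCherry/BFP followed 48 h of incubation with or without ligand. The cells were enriched HEK293T libraries lentivirally bearing an mCherry reporter with the ribozyme switch and an EF1α-BFP marker, and bin genomic DNA was PCR-amplified, barcoded and sequenced on MiSeq. Fluorescence is the fitted normal mean of the bin counts. Means were fitted on log10(mCherry/BFP), scaled to five spiked-in control ribozymes.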

hypoxanthine [2] = variants of: B1; assay: normalized RNA/DNA level with ligand (relative to sTRSVctl = 100) (log10 (% of sTRSVctl)); ligand: hypoxanthine (xanthine aptamer); higher = less ribozyme self-cleavage, higher mRNA level; conditions: ligand concentration (+) RNA-Seq: 5 mM, HEK293T, reporter: mCherry (pCS4076), ligand present: yes
Method in brief: (§2)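 Total RNA, extracted with EDTA 72 h after HEK293T cells were transfected with 4 µg per 6-well well of reporter-linked ribozyme switch library plasmids, was reverse-transcribed, amplified, barcoded and sequenced. Ligand, if used, was added 1 h before transfection. RNA level was derived from RNA reads divided by DNA reads and normalized to a spiked-in non-cleaving sequence or to the top sequences. This was multiplied by 100 and log10-transformed, with the top set of 25 sequences and a ≥100 DNA read minimum.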

hypoxanthine [3] = variants of: B1; assay: normalized RNA/DNA level without ligand (relative to sTRSVctl = 100) (log10 (% of sTRSVctl)); ligand: hypoxanthine (xanthine aptamer); higher = less ribozyme self-cleavage, higher mRNA level; conditions: HEK293T, reporter: mCherry (pCS4076), ligand present: no
Method in brief: as §2

hypoxanthine [4] = variants of: B1; assay: FACS-Seq fitted mean relative fluorescence mCherry/BFP with ligand (log10 relative fluorescence); ligand: hypoxanthine (xanthine aptamer); ligand concentration (+) FACS-Seq: 5 mM; higher = higher reporter protein expression; conditions: HEK293T, ligand present: yes
Method in brief: as §1

Variant	FACS-Seq fitted mean (log10) (hypoxanthine [1])	normalized RNA/DNA level with ligand (log10) (hypoxanthine [2])	normalized RNA/DNA level without ligand (log10) (hypoxanthine [3])	FACS-Seq fitted mean (log10) (hypoxanthine [4])
CUGUAU	0.503 ± 0.018	1.899 ± 0.013	1.82 ± 0.043	0.384 ± 0.08
UUCUGG	0.955 ± 0.026	1.931 ± 0.0039	1.8 ± 0.023	0.764 ± 0.068
UUCGUA	0.252 ± 0.0058	1.93 ± 0.064	1.87 ± 0.026	0.384 ± 0.035
AUCUGA	0.724 ± 0.047	1.96 ± 0.049	1.83 ± 0.045	0.684 ± 0.016
AUCUGG	0.338 ± 0.0078	1.84 ± 0.023	1.426 ± 0.0099	0.609 ± 0.05
UUGCUU	0.227 ± 0.004	1.98 ± 0.042	1.94 ± 0.044	0.0746 ± 0.042
UUGCCG	0.171 ± 0.068	1.98 ± 0.039	1.83 ± 0.038	0.358 ± 0.006
UUCGCA	0.4682 ± 0.0031	1.95 ± 0.051	1.86 ± 0.067	0.512 ± 0.038
UUGAAG	0.35 ± 0.06	1.93 ± 0.077	1.64 ± 0.059	0.6894 ± 0.0024
UUGAAA	0.426 ± 0.1	1.953 ± 0.0063	1.77 ± 0.044	0.614 ± 0.07
AUGUGU	-0.337 ± 0.023	1.86 ± 0.02	1.53 ± 0.059	0.155 ± 0.022
AUGUGA	0.242 ± 0.018	1.849 ± 0.0086	1.56 ± 0.1	0.68 ± 0.028
AUGUGG	-0.193 ± 0.082	1.756 ± 0.0083	1.27 ± 0.11	-0.0634 ± 0.1
GUGUUG	0.222 ± 0.012	1.83 ± 0.048	1.34 ± 0.11	0.559 ± 0.033
UUUAAC	0.697 ± 0.045	2 ± 0.04	1.86 ± 0.021	0.716 ± 0.07
UUUAAU	0.485 ± 0.013	1.918 ± 0.01	1.856 ± 0.0057	0.421 ± 0.053
CUGACC	0.127 ± 0.042	1.99 ± 0.037	1.91 ± 0.026	0.416 ± 0.008
CUGACA	0.453 ± 0.025	1.89 ± 0.0074	1.821 ± 0.017	0.522 ± 0.12
